Results taken from article PMC2064082 (The Journal of Cell Biology, 2007).

T1: Ple R4–C (L3850–A4687) (rat, UniProt P30427 3850-4687)
T1 sequence (looked up): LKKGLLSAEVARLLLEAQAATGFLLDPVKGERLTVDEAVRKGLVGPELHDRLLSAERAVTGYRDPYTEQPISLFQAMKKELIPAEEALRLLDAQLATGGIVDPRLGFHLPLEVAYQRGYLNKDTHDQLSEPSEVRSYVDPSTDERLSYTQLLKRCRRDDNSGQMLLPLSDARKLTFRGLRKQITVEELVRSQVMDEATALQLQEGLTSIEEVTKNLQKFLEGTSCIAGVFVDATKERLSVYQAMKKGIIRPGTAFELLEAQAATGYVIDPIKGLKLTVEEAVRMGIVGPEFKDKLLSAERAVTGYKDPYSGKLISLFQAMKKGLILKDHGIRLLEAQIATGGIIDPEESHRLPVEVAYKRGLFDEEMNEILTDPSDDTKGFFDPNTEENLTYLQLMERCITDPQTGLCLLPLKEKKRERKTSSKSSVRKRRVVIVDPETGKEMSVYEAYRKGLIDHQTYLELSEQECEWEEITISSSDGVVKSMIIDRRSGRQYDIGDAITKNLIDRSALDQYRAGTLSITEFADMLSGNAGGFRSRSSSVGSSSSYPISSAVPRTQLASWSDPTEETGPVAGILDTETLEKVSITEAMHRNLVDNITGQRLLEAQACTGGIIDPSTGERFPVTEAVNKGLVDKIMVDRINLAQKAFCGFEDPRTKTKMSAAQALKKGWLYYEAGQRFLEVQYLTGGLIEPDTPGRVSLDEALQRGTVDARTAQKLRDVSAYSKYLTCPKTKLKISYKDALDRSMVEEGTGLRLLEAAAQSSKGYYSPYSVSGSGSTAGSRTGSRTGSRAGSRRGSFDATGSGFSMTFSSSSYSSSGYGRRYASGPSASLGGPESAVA

T2: Ple E12–24 (M546–E1128) (rat, UniProt P30427 546-1128)
T2 sequence (looked up): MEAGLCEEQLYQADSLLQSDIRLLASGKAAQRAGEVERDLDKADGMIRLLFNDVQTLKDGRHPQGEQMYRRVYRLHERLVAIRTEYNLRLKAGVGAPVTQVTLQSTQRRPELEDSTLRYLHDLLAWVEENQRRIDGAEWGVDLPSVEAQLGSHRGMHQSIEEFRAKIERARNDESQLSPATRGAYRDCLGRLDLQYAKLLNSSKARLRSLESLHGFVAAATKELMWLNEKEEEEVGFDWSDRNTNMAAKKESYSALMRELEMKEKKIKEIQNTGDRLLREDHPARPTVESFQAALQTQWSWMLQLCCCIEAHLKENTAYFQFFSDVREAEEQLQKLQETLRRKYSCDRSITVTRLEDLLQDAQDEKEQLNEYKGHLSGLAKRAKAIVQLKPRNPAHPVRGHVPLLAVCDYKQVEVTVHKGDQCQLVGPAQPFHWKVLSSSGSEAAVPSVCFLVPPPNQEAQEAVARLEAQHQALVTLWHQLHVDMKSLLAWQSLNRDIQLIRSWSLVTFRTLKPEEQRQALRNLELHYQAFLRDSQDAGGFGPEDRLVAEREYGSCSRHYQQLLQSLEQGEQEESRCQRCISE

T3: Dys WW-ZZ, WW-ZZ domain (A3041–M3356) of human dystrophin (human, UniProt P11532 3041-3356)
T3 sequence (looked up): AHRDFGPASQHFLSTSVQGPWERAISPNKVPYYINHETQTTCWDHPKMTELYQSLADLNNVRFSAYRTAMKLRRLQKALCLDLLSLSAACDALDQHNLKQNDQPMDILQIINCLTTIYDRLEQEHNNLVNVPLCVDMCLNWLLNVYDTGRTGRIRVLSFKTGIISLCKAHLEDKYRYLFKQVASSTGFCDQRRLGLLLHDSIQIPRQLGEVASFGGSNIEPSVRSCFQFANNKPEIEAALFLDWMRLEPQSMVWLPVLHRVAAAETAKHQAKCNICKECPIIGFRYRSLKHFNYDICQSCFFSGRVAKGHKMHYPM

T4: Utr WW-ZZ (A2798–M3113) (human, UniProt P46939 2798-3113)
T4 sequence (looked up): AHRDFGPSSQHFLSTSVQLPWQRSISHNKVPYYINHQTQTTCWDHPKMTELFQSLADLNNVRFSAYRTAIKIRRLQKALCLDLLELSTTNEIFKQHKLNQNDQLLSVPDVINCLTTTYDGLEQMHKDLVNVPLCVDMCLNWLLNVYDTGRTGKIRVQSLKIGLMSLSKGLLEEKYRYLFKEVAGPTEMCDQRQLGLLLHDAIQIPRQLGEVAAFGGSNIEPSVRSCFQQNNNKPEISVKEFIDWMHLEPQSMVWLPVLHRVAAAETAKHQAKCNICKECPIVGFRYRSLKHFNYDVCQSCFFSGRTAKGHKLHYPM

B1: βDGcyt (L765–P895), cytoplasmic domain of human β-dystroglycan (domain or fragment, UniProt Q14118 765-895, looked up)
chain: LIAGIIAMICYRKKRKGKLTLEDQATFIKKGVPIIFADELDDSKPPPSSSMPLILQEEKAPLPPPEYPNQSVPETTPLNQDTMGEYTPLRDEDPNAPPYQPPPPFTAPMEGKGSRPKNMTPYRSPPPYVPP
B2: Eu3+-labeled version of the full-length cytoplasmic domain of βDG (βDGcyt) (domain or fragment, human, UniProt Q14118 765-895, looked up)
chain: B1 chain
modifications: Eu3+ label
B3: βDGcytΔDBS (L765–D857), β-dystroglycan cytoplasmic fragment lacking the dystrophin-binding site (domain or fragment, human, UniProt Q14118 765-857, looked up)
chain: LIAGIIAMICYRKKRKGKLTLEDQATFIKKGVPIIFADELDDSKPPPSSSMPLILQEEKAPLPPPEYPNQSVPETTPLNQDTMGEYTPLRDED

Assays:
Ple R4–C (L3850–A4687) = molecular target: T1, Ple R4–C (L3850–A4687); test: far-Western, overlay or dot blot
Ple E12–24 (M546–E1128) = molecular target: T2, Ple E12–24 (M546–E1128); test: far-Western, overlay or dot blot
[1] = molecular target: T3, Dys WW-ZZ, WW-ZZ domain (A3041–M3356) …; test: far-Western, overlay or dot blot
Utr WW-ZZ (A2798–M3113) = molecular target: T4, Utr WW-ZZ (A2798–M3113); test: microtiter plate-binding assay

Row | Binder | binding result (Ple R4–C (L3850–A4687)) | binding result (Ple E12–24 (M546–E1128)) | binding result [1] | binding result (Utr WW-ZZ (A2798–M3113))
1 | B1 | binds | binds | binds | –
2 | B2 | – | – | – | binds
3 | B3 | – | binds | – | –
